Assay results taken from patent US20240270846A1 (published 2024).

Target: T1, CD3 epsilon homodimer protein (UniProt P07766 23-126)
T1 construct: Immobilized on Sensor chip CM4 by amine coupling; construct not described; also called CD3 (CD3 epsilon)
Assay: SPR Biacore T200, CD3 epsilon homodimer on CM4 chip, antibody as analyte;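 note: Amine-coupled CD3 epsilon homodimer, run at 25 °C in HBS-EP+ buffer, ratio is bound amount of each single-residue H chain variant over that of the parent antibody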

T1 sequence (P07766 23-126): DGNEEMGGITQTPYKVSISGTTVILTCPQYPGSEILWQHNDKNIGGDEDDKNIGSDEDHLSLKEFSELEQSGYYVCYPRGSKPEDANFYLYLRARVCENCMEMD

Row | Binder | ratio of amounts bound (Y/X vs CE115HA000)
1 | CE115HA000 D101K one-arm antibody (antibody, human IgG1, kappa, L234A L235A, N297A, name in Kabat numbering, one-arm antibody (one Fab)) heavy: QVQLVESGGGVVQPGRSLRLSCAASGFTFSNAWMHWVRQAPGKGLEWVAQIKAKSNNYATYYAESVKGRFTISRDDSKNSLYLQMNSLKTEDTAVYYCRYVHYGAYYGVKAWGQGTTVTVSSASTKGPSVFPLAPSSKSTSGGTAALGCLVKDYFPEPVTVSWNSGALTSGVHTFPAVLQSSGLYSLSSVVTVPSSSLGTQTYICNVNHKPSNTKVDKKVEPKSCDKTHTCPPCPAPEAAGGPSVFLFPPKPKDTLMISRTPEVTCVVVDVSHEDPEVKFNWYVDGVEVHNAKTKPREEQYASTYRVVSVLTVLHQDWLNGKEYKCKVSNKALPAPIEKTISKAKGQPREPQVYTLPPSRCELTKNQVSLSCAVKGFYPSDIAVEWESNGQPENNYKTTPPVLDSDGSFFLVSKLTVDKSRWQQGNVFSCSVMHEALHNHYTQKSLSLSPDYKDDDDK EPKSSDKTHTCPPCPAPELLGGPSVFLFPPKPKDTLMISRTPEVTCVVVDVSHEDPEVKFNWYVDGVEVHNAKTKPREEQYNSTYRVVSVLTVLHQDWLNGKEYKCKVSNKALPAPIEKTISKAKGQPREPQVCTLPPSRDELTKNQVSLWCLVKGFYPSDIAVEWESNGQPENNYKTTPPVLDSDGSFFLYSKLTVDKSRWQQGNVFSCSVMHEALHNRYTQKSLSLSP light: DIVMTQSPLSLPVTPGEPASISCRSSQSLVHSNRNTYLHWYQQKPGQAPRLLIYKVSNRFSGVPDRFSGSGSGTDFTLKISRVEAEDVGVYYCGQGTQVPYTFGQGTKLEIKRTVAAPSVFIFPPSDEQLKSGTASVVCLLNNFYPREAKVQWKVDNALQSGNSQESVTEQDSKDSTYSLSSTLTLSKADYEKHKVYACEVTHQGLSSPVTKSFNRGEC | 0.63
2 | CE115HA000 D101L one-arm antibody (antibody, human IgG1, kappa, L234A L235A, N297A, name in Kabat numbering, one-arm antibody (one Fab)) heavy: QVQLVESGGGVVQPGRSLRLSCAASGFTFSNAWMHWVRQAPGKGLEWVAQIKAKSNNYATYYAESVKGRFTISRDDSKNSLYLQMNSLKTEDTAVYYCRYVHYGAYYGVLAWGQGTTVTVSSASTKGPSVFPLAPSSKSTSGGTAALGCLVKDYFPEPVTVSWNSGALTSGVHTFPAVLQSSGLYSLSSVVTVPSSSLGTQTYICNVNHKPSNTKVDKKVEPKSCDKTHTCPPCPAPEAAGGPSVFLFPPKPKDTLMISRTPEVTCVVVDVSHEDPEVKFNWYVDGVEVHNAKTKPREEQYASTYRVVSVLTVLHQDWLNGKEYKCKVSNKALPAPIEKTISKAKGQPREPQVYTLPPSRCELTKNQVSLSCAVKGFYPSDIAVEWESNGQPENNYKTTPPVLDSDGSFFLVSKLTVDKSRWQQGNVFSCSVMHEALHNHYTQKSLSLSPDYKDDDDK EPKSSDKTHTCPPCPAPELLGGPSVFLFPPKPKDTLMISRTPEVTCVVVDVSHEDPEVKFNWYVDGVEVHNAKTKPREEQYNSTYRVVSVLTVLHQDWLNGKEYKCKVSNKALPAPIEKTISKAKGQPREPQVCTLPPSRDELTKNQVSLWCLVKGFYPSDIAVEWESNGQPENNYKTTPPVLDSDGSFFLYSKLTVDKSRWQQGNVFSCSVMHEALHNRYTQKSLSLSP light: DIVMTQSPLSLPVTPGEPASISCRSSQSLVHSNRNTYLHWYQQKPGQAPRLLIYKVSNRFSGVPDRFSGSGSGTDFTLKISRVEAEDVGVYYCGQGTQVPYTFGQGTKLEIKRTVAAPSVFIFPPSDEQLKSGTASVVCLLNNFYPREAKVQWKVDNALQSGNSQESVTEQDSKDSTYSLSSTLTLSKADYEKHKVYACEVTHQGLSSPVTKSFNRGEC | 0.62

The remaining lines, values ahead:

Row | ratio of amounts bound (Y/X vs CE115HA000) | Binder
3 | 1.2 | CE115HA000 D101M one-arm antibody (antibody, human IgG1, kappa, L234A L235A, N297A, name in Kabat numbering, one-arm antibody (one Fab)) heavy: QVQLVESGGGVVQPGRSLRLSCAASGFTFSNAWMHWVRQAPGKGLEWVAQIKAKSNNYATYYAESVKGRFTISRDDSKNSLYLQMNSLKTEDTAVYYCRYVHYGAYYGVMAWGQGTTVTVSSASTKGPSVFPLAPSSKSTSGGTAALGCLVKDYFPEPVTVSWNSGALTSGVHTFPAVLQSSGLYSLSSVVTVPSSSLGTQTYICNVNHKPSNTKVDKKVEPKSCDKTHTCPPCPAPEAAGGPSVFLFPPKPKDTLMISRTPEVTCVVVDVSHEDPEVKFNWYVDGVEVHNAKTKPREEQYASTYRVVSVLTVLHQDWLNGKEYKCKVSNKALPAPIEKTISKAKGQPREPQVYTLPPSRCELTKNQVSLSCAVKGFYPSDIAVEWESNGQPENNYKTTPPVLDSDGSFFLVSKLTVDKSRWQQGNVFSCSVMHEALHNHYTQKSLSLSPDYKDDDDK EPKSSDKTHTCPPCPAPELLGGPSVFLFPPKPKDTLMISRTPEVTCVVVDVSHEDPEVKFNWYVDGVEVHNAKTKPREEQYNSTYRVVSVLTVLHQDWLNGKEYKCKVSNKALPAPIEKTISKAKGQPREPQVCTLPPSRDELTKNQVSLWCLVKGFYPSDIAVEWESNGQPENNYKTTPPVLDSDGSFFLYSKLTVDKSRWQQGNVFSCSVMHEALHNRYTQKSLSLSP light: DIVMTQSPLSLPVTPGEPASISCRSSQSLVHSNRNTYLHWYQQKPGQAPRLLIYKVSNRFSGVPDRFSGSGSGTDFTLKISRVEAEDVGVYYCGQGTQVPYTFGQGTKLEIKRTVAAPSVFIFPPSDEQLKSGTASVVCLLNNFYPREAKVQWKVDNALQSGNSQESVTEQDSKDSTYSLSSTLTLSKADYEKHKVYACEVTHQGLSSPVTKSFNRGEC
4 | 2.02 | CE115HA000 D101N one-arm antibody (antibody, human IgG1, kappa, L234A L235A, N297A, name in Kabat numbering, one-arm antibody (one Fab)) heavy: QVQLVESGGGVVQPGRSLRLSCAASGFTFSNAWMHWVRQAPGKGLEWVAQIKAKSNNYATYYAESVKGRFTISRDDSKNSLYLQMNSLKTEDTAVYYCRYVHYGAYYGVNAWGQGTTVTVSSASTKGPSVFPLAPSSKSTSGGTAALGCLVKDYFPEPVTVSWNSGALTSGVHTFPAVLQSSGLYSLSSVVTVPSSSLGTQTYICNVNHKPSNTKVDKKVEPKSCDKTHTCPPCPAPEAAGGPSVFLFPPKPKDTLMISRTPEVTCVVVDVSHEDPEVKFNWYVDGVEVHNAKTKPREEQYASTYRVVSVLTVLHQDWLNGKEYKCKVSNKALPAPIEKTISKAKGQPREPQVYTLPPSRCELTKNQVSLSCAVKGFYPSDIAVEWESNGQPENNYKTTPPVLDSDGSFFLVSKLTVDKSRWQQGNVFSCSVMHEALHNHYTQKSLSLSPDYKDDDDK EPKSSDKTHTCPPCPAPELLGGPSVFLFPPKPKDTLMISRTPEVTCVVVDVSHEDPEVKFNWYVDGVEVHNAKTKPREEQYNSTYRVVSVLTVLHQDWLNGKEYKCKVSNKALPAPIEKTISKAKGQPREPQVCTLPPSRDELTKNQVSLWCLVKGFYPSDIAVEWESNGQPENNYKTTPPVLDSDGSFFLYSKLTVDKSRWQQGNVFSCSVMHEALHNRYTQKSLSLSP light: DIVMTQSPLSLPVTPGEPASISCRSSQSLVHSNRNTYLHWYQQKPGQAPRLLIYKVSNRFSGVPDRFSGSGSGTDFTLKISRVEAEDVGVYYCGQGTQVPYTFGQGTKLEIKRTVAAPSVFIFPPSDEQLKSGTASVVCLLNNFYPREAKVQWKVDNALQSGNSQESVTEQDSKDSTYSLSSTLTLSKADYEKHKVYACEVTHQGLSSPVTKSFNRGEC
